According to article PMC9822811:

Biological target: recombinant SARS-CoV-2 RBD of original WT strain (SARS-CoV-2) (UniProt P0DTC2)
Assay: SPR

With REGN-10933 the Kd was 0.576 nM.
